In US20080305997A1 (UNIVERSITY OF NORTH CAROLINA AT CHARLOTTE, published 2008):

B1: P4, overlapping synthetic peptide of Salp15 (amino acids 31-50) (peptide)
peptide: SNHQKLALKLLKICKDSKSS
notes: Chemically synthesized (GenScript); coated on the plate
B2: P5, overlapping synthetic peptide of Salp15 (amino acids 41-60) (peptide)
peptide: LKICKDSKSSHNSLSSRSSD
notes: as for B1
B3: P2, overlapping synthetic peptide of Salp15 (amino acids 11-30) (peptide)
peptide: STADKDTKKNNVQLRFPNYI
notes: as for B1
B4: P10, overlapping synthetic peptide of Salp15 (amino acids 91-110) (peptide)
peptide: DTPCGPNGQTCAEKNKCVGH
notes: as for B1
B5: P3, overlapping synthetic peptide of Salp15 (amino acids 21-40) (peptide)
peptide: NVQLRFPNYISNHQKLALKL
notes: as for B1
B6: P1, overlapping synthetic peptide of Salp15 (amino acids 1-20) (peptide)
peptide: NESGPTKADASTADKDTKKN
notes: as for B1
B7: P9, overlapping synthetic peptide of Salp15 (amino acids 81-100) (peptide)
peptide: DVNVTLNLPEDTPCGPNGQT
notes: as for B1
B8: P6, overlapping synthetic peptide of Salp15 (amino acids 51-70) (peptide)
peptide: HNSLSSRSSDVINDKYVDFK
notes: as for B1
B9: P7, overlapping synthetic peptide of Salp15 (amino acids 61-80) (peptide)
peptide: VINDKYVDFKNCTFLCKHGN
notes: as for B1
B10: P8, overlapping synthetic peptide of Salp15 (amino acids 71-90) (peptide)
peptide: NCTFLCKHGNDVNVTLNLPE
notes: Chemically synthesized (GenScript)
B11: P11, C-terminal peptide of Salp15 (amino acids 95-114) (peptide)
peptide: GPNGQTCAEKNKCVGHIPGC
notes: Chemically synthesized (GenScript); also called P11k

These binders were tested against T1, sCD4-HRP (Research Diagnostics Inc.) (UniProt P01730 26-396, limits assumed) (assay: microtiter assay, plate-bound peptide, sCD4-HRP).
T1 construct: extracellular domain
B1: no binding (tested: 0.5 µg peptide coated).
B2: no binding (tested: 0.5 µg peptide coated).
B3: no binding (tested: 0.5 µg peptide coated).
B4: no binding (tested: 0.5 µg peptide coated).
B5: no binding (tested: 0.5 µg peptide coated).
B6: no binding (tested: 0.5 µg peptide coated).
B7: no binding (tested: 0.5 µg peptide coated).
B8: no binding (tested: 0.5 µg peptide coated).
B9: no binding (tested: 0.5 µg peptide coated).
B10: no binding (tested: 0.5 µg peptide coated).

The binders below were run against T1, sCD4-HRP (Research Diagnostics Inc.) (assay: microtiter assay, increasing concentrations of plate-bound P11, sCD4-HRP, non-linear curve fit).
Binder B11 has a Kd of 50 nM.

These binders were tested against T1, sCD4-HRP (Research Diagnostics Inc.) (assay: microtiter competition; free P11 added to sCD4-HRP on plate-bound P11).
Procedure: Purified sCD4 was coated overnight at 4° C. at the indicated concentrations in 0.1M sodium carbonate buffer (pH 9.5) in 96 well plates. Equimolar amounts of lysozyme were used as a non-specific control. […] The reaction was stopped by adding TMB stop solution (KPL). […] The wells were washed and blocked prior to incubation with sCD4-HRP (Research Diagnostics Inc., Flanders, N.J., U.S.A.).
B11 showed an IC50 of 1250 nM.
